T1: TG3 (human, UniProt Q08188)
T1 construct: recombinant, Zedira; also called recombinant human TG3; Epidermal Transglutaminase
T1 sequence (enzyme, looked up): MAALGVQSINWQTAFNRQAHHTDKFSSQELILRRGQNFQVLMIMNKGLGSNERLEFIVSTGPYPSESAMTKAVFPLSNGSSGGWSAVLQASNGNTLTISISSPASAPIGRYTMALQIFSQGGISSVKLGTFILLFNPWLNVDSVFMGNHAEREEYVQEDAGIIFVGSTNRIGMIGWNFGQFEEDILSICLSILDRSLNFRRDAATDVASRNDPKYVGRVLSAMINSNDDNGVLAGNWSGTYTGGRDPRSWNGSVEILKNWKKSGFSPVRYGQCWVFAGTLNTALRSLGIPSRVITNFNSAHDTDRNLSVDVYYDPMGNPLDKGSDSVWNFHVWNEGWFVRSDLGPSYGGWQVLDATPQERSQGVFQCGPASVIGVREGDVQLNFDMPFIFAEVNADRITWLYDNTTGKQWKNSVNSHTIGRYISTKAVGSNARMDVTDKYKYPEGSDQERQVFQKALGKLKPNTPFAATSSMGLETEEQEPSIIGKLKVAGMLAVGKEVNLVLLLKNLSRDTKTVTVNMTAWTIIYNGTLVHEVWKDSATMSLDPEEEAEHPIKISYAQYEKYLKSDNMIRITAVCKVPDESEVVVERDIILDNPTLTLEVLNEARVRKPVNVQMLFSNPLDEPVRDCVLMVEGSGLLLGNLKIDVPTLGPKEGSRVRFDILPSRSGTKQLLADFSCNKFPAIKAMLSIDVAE

T2: TG13
T2 construct: also called Factor XIIIa
T2 chain: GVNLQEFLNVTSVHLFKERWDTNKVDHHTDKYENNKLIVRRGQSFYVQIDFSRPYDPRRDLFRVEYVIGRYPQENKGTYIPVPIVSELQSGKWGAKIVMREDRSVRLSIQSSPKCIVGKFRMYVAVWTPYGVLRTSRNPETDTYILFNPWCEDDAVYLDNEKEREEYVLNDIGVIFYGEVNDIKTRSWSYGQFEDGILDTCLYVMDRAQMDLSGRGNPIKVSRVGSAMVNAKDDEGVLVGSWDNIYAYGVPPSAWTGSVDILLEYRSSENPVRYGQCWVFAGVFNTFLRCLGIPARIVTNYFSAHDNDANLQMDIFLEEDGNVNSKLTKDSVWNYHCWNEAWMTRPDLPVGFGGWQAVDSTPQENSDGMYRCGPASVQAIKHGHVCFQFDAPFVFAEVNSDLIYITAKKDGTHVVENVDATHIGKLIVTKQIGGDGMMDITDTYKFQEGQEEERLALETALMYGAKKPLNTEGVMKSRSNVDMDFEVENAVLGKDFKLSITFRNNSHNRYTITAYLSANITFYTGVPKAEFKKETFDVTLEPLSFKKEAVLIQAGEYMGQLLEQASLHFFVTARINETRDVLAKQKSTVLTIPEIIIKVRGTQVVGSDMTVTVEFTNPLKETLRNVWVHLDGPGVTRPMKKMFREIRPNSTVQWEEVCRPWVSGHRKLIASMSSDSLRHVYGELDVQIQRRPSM

T3: TG1 (human, UniProt P22735)
T3 construct: recombinant, Zedira; also called recombinant human TG1; Keratinocyte Transglutaminase
T3 sequence (enzyme, looked up): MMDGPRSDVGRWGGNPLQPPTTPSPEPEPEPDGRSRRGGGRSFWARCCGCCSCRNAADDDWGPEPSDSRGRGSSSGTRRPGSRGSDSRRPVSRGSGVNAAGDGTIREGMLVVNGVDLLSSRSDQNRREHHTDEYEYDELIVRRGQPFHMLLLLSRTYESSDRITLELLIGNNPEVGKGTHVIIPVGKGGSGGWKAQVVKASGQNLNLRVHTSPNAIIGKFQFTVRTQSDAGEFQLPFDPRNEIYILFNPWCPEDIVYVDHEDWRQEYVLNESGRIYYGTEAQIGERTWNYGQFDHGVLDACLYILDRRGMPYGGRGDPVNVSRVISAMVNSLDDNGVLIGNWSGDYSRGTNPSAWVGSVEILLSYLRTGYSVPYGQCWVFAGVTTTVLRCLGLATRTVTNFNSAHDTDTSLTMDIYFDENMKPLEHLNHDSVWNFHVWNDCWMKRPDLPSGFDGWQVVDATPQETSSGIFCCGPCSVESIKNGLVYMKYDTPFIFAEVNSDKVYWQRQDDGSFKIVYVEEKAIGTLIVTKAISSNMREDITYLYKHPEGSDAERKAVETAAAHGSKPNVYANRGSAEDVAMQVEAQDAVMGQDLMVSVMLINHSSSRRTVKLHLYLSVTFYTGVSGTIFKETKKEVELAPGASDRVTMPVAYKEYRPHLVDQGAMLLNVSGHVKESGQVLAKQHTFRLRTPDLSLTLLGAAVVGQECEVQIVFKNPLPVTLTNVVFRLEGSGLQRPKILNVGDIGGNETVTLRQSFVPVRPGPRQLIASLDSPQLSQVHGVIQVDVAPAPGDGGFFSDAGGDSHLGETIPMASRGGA

B1: DH2 murine monoclonal antibody (antibody, V domains shown)
VH: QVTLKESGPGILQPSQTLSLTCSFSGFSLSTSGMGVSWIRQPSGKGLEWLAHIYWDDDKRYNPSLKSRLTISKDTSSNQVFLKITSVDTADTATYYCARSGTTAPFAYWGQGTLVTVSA
VL: QIVLTQSPAIMSASPGEKVTMTCSASSSVSYMYWYQQKPGSSPRLLIYDTSNLASGVPVRFSGSGSGTSYSLTISRMEAEDAATFYCQQWSSSPLTFGAGTKLELK
notes: Mouse hybridoma IgG; heavy chain amplified with primer MHCG2B, kappa light chain; also called mDH001
B2: DD9 murine monoclonal antibody (antibody, V domains shown)
VH: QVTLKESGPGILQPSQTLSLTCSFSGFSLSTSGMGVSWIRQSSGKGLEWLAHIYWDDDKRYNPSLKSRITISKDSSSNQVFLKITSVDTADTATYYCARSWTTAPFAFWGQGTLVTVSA
VL: QIVLTQSPAIMSASPGEKVTMTCSASSSVDYMYWYQQKPGSSPRLLIYDTSNLASGVPVRFSGSGSGTSYSLTISRMGAEDAATYYCQQWNSSPLTFGAGTKLELK
notes: Mouse hybridoma IgG; heavy chain amplified with primer MHCG2A, kappa light chain; also called mDD9001
B3: AB1 murine monoclonal antibody (antibody, V domains shown)
VH: EVQLVESGGGLVKPGGSLKLSCAASGFTLSSSAMSWVRQTPDRRLEWVATISVGGGKTYYPDSVKGRFTISRDNAKNTLYLQMNSLRSEDTAMYYCAKLISLYWGQGTTLTVSS
VL: DIKMTQSPSSMYASLGERVTITCKASQDINSYLTWFQQKPGKSPKTLIYRTNRLFDGVPSRFSGSGSGQDFFLTISSLEYEDMGIYYCLQYDDFPYTFGGGTKLEIK
notes: Mouse hybridoma IgG; heavy chain amplified with constant region primer MHCG1, kappa light chain; also called mAB003
B4: DC1 murine monoclonal antibody (antibody, V domains shown)
VH: EVQLVESGGGLVKPGGSLKLSCAASGFTLSTHAMSWVRQTPEKRLEWVATISSGGRSTYYPDSVKGRFTISRDNVKNTLYLQLSSLRSEDTAVYFCARLISTYWGQGTTLTVSS
VL: DITMTQSPSSIYASLGERVTITCKASQDINSYLTWFQQKPGKSPKILIYLVNRLVDGVPSRFSGSGSGQDYALTISSLEYEDMGIYYCLQYDDFPYTFGGGTKLEIK
notes: Mouse hybridoma IgG; heavy chain amplified with primer MHCG1, kappa light chain; also called mDC001
B5: BB7 murine monoclonal antibody (antibody, V domains shown)
VH: AVQLVESGGGLVKPGGSLKLSCAASGIIFSSSAMSWVRQTPEKRLEWVATISSGGRSTYYPDSVKGRFTVSRDSAKNTLYLQMDSLRSEDTAIYYCAKLISPYWGQGTTLTVSS
VL: AIKMTQSPSSMYASLGERVIITCKASQDINSYLTWFQQKPGKSPKTLIYLTNRLMDGVPSRFSGSGSGQEFLLTISGLEHEDMGIYYCLQYVDFPYTFGGGTKLEIK
notes: Mouse hybridoma IgG; heavy chain amplified with primer MHCG1, kappa light chain; also called mBB001
B6: AG9 murine monoclonal antibody (antibody, V domains shown)
VH: EVQLQQSGPELVKPGASVKMSCRASGYTFTTYVIHWVKQKPGQGLEWIGYINPYNDGARYNEKFKGKATLTSDKSSTTAYMELSSLTSEDSAVYYCARLSSDYWGQGTTLTVSS
VL: DVLMTQNPLSLPVSLGDQASISCRSSRSIEHSNGNTYLEWYLQKPGQSPKFLIYKVSNRFSGVPDRFSGSGSGTDFTLRISSVEAEDLGVYYCFQGSHVPFTFGGGTKLEIK
notes: Mouse hybridoma IgG; heavy chain amplified with primer MHCG1, kappa light chain
B7: EH6 murine monoclonal antibody (antibody, V domains shown)
VH: EVQLQQSGPELVKPGASVKMSCKASGYTFTSYVMHWVKQKPGQGLEWIGFINPYNDGTKYNEKFKGKATLTSDKASTTAYMELSSLTSEDSAVYYCARFSSGYWGQGTTLTVSS
VL: DVLMTQTPLSLPVSLGDQASISCRSSQSIVHSNGNTYLEWYLQKPGQSPKLLIYKVSNRFSGVPDRFSGSGSGTDFTLKISRVGAEDLGVYYCLQVSHVPFTFGSGTKLEIK
notes: Mouse hybridoma IgG; heavy chain amplified with primer MHCG2B, kappa light chain
B8: AH3 murine monoclonal antibody (antibody, V domains shown)
VH: EVQLQQSGPELVKPGASVKMSCRASGYTFTTYVIHWVKQKPGQGLEWIGYINPYNDGARYNEKFKGKATLTSDKSSTTAYMELSSLTSEDSAVYYCARLSSDYWGQGTTLTVSS
VL: DVLMTQNPLSLPVSLGDQASISCRSSRSIEHSNGNTYLEWYLQKPGQSPKFLIYKVSNRFSGVPDRFSGSGSGTDFTLRISSVEAEDLGVYYCFQGSHVPFTFGGGTKLEIK
notes: as for B7
B9: JE12 murine monoclonal antibody (antibody, V domains shown)
VH: EVQLQQSGPELVKPGASVKMSCKASGYRFTSYVMHWVKQKSGQGLEWIGYINPYNDGAKYNEKFKGKATLTSDKSSSTAYMELSSLTSEDSAVYYCARLSSDYWGQGTTLTVSS
VL: DVLMTQNPLSLPVSLGDQASISCRSSQSIEHINGNTYLEWYLQKPGQSPKFLIYKVSNRFSGVPDRFSGSGSGTDFTLRISRVEAEDLGIYYCFQGSHVPFTFGGGTKLEIK
notes: as for B6

Tests used:
Assay in all cases: ELISA, hybridoma conditioned medium, plates coated with recombinant TG (100 ng/well) [panel A]
TG3 = target: T1, TG3
Experimental: (§1) Conditioned medium or purified IgG were tested for reactivity to transglutaminase family members. The ability of each to bind to each transglutaminase (TG1, TG2, TG3, TG5, TG7 and Factor XIIIa; all Zedira) was determined using a plate binding assay. Microtiter plates (Costar, Cambridge, UK) were coated with recombinant TG (Zedira, Darmstadt, Germany) in 50 μl of 0.1 M bicarbonate/carbonate buffer (pH 9.6) overnight at 4° C. Plates were blocked for 2 h at 37° C. with 200 μl PBS containing 3% w/v BSA. Plates were washed three times with PBS containing 0.05% Tween 20 (washing buffer) and 100 μl of diluted conditioned medium (dilution 1:5 to 1:20) or purified anti-TG2 catalytic core mAbs was added. Plates were incubated for a further 1 h at room temperature. The washing step was repeated and anti-mouse gamma chain-horseradish peroxidase (1:5000) in PBS containing 0.05% Tween 20 (v:v) and 1% BSA (w:v) (Sigma, Poole UK) was added for 1 h. […] The reaction was stopped by adding 25 μl of 0.1 M H_2SO_4 and the absorbance at 450 nm was determined.

TG13 = target: T2, TG13
Experimental: as §1

TG1 = target: T3, TG1
Experimental: as §1

Binder	binding result (TG3)	binding result (TG13)	binding result (TG1)
B1	no binding	no binding	no binding
B2	no binding	no binding	no binding
B3	no binding	no binding	no binding
B4			no binding
B5	no binding	no binding	no binding
B6	no binding	no binding	no binding
B7	no binding	no binding	no binding
B8	no binding	no binding	no binding
B9	no binding	no binding	no binding
